Measurements taken from patent publication US20090285798A1.

Molecular target: gp120
Experiment: fluorescence anisotropy, Kd values of Table I, told of the isolates together

“Alexa labeled mini-protein CD4M47 (peptide)” gave a fold gain of affinity over CD4M48 of 3 fold.
